Measured values reported in patent US20140087995A1 (published 2014).
Numbered stars: 1 amine (or outer) side, 2 acyl side, 3 side chain; on linkers, the order of the positions; unused ones are H or OH. Bridge positions count the residues as written; N and C are the ends. Side chains are listed from the residue outwards. Ends that are not written are not given here. * marks the point of attachment. C20 diacid = O=C(O)CCCCCCCCCCCCCCCCCCC(=O)*; γGlu = O=C(O)[C@H](CCC(=O)[*:2])N[*:1]; AEEA = NCCOCCOCC(=O)O

T1: human calcitonin receptor (human, UniProt P30988 25-474)
T1 sequence (looked up): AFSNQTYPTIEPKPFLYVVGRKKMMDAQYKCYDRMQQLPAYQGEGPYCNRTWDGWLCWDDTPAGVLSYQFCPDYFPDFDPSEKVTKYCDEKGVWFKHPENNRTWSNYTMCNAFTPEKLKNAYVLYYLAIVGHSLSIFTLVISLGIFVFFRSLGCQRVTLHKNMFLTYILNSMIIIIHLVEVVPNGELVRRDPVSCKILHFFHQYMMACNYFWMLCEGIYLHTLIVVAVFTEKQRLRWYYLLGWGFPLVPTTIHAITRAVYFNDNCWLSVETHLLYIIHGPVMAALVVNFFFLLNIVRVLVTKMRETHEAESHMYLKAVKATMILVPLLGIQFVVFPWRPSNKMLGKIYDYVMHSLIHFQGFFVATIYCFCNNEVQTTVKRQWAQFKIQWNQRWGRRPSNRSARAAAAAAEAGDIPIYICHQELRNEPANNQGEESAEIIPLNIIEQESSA


Target: T1, human calcitonin receptor
Assay: cell-based or functional assay

Row | hCTR funct. EC50 [nM] | Binder
1 | 22.9 | K([AEEA-γGlu-C20 diacid])CNTATCATQRLARFLRHSSPNFGAIPSSTPVGSNTY-NH2 (disulfide 2-7; N-terminus assumed; SMILES CC[C@H](C)[C@H](NC(=O)[C@H](C)NC(=O)CNC(=O)[C@H](Cc1ccccc1)NC(=O)[C@H](CC(N)=O)NC(=O)[C@@H]1CCCN1C(=O)[C@H](CO)NC(=O)[C@H](CO)NC(=O)[C@H](Cc1c[nH]cn1)NC(=O)[C@H](CCCNC(=N)N)NC(=O)[C@H](CC(C)C)NC(=O)[C@H](Cc1ccccc1)NC(=O)[C@H](CCCNC(=N)N)NC(=O)[C@H](C)NC(=O)[C@H](CC(C)C)NC(=O)[C@H](CCCNC(=N)N)NC(=O)[C@H](CCC(N)=O)NC(=O)[C@@H](NC(=O)[C@H](C)NC(=O)[C@@H]1CSSC[C@H](NC(=O)[C@@H](N)CCCCNC(=O)COCCOCCNC(=O)CC[C@H](NC(=O)CCCCCCCCCCCCCCCCCCC(=O)O)C(=O)O)C(=O)N[C@@H](CC(N)=O)C(=O)N[C@@H]([C@@H](C)O)C(=O)N[C@@H](C)C(=O)N[C@@H]([C@@H](C)O)C(=O)N1)[C@@H](C)O)C(=O)N1CCC[C@H]1C(=O)N[C@@H](CO)C(=O)N[C@@H](CO)C(=O)N[C@H](C(=O)N1CCC[C@H]1C(=O)N[C@H](C(=O)NCC(=O)N[C@@H](CO)C(=O)N[C@@H](CC(N)=O)C(=O)N[C@H](C(=O)N[C@@H](Cc1ccc(O)cc1)C(N)=O)[C@@H](C)O)C(C)C)[C@@H](C)O, also called compound 64)
2 | 12.7 | K([AEEA-γGlu-C20 diacid])CNTATCATQRLARFLRHSSPNFGAIPSSTNVGSNTY-NH2 (disulfide 2-7; N-terminus assumed; SMILES CC[C@H](C)[C@H](NC(=O)[C@H](C)NC(=O)CNC(=O)[C@H](Cc1ccccc1)NC(=O)[C@H](CC(N)=O)NC(=O)[C@@H]1CCCN1C(=O)[C@H](CO)NC(=O)[C@H](CO)NC(=O)[C@H](Cc1c[nH]cn1)NC(=O)[C@H](CCCNC(=N)N)NC(=O)[C@H](CC(C)C)NC(=O)[C@H](Cc1ccccc1)NC(=O)[C@H](CCCNC(=N)N)NC(=O)[C@H](C)NC(=O)[C@H](CC(C)C)NC(=O)[C@H](CCCNC(=N)N)NC(=O)[C@H](CCC(N)=O)NC(=O)[C@@H](NC(=O)[C@H](C)NC(=O)[C@@H]1CSSC[C@H](NC(=O)[C@@H](N)CCCCNC(=O)COCCOCCNC(=O)CC[C@H](NC(=O)CCCCCCCCCCCCCCCCCCC(=O)O)C(=O)O)C(=O)N[C@@H](CC(N)=O)C(=O)N[C@@H]([C@@H](C)O)C(=O)N[C@@H](C)C(=O)N[C@@H]([C@@H](C)O)C(=O)N1)[C@@H](C)O)C(=O)N1CCC[C@H]1C(=O)N[C@@H](CO)C(=O)N[C@@H](CO)C(=O)N[C@H](C(=O)N[C@@H](CC(N)=O)C(=O)N[C@H](C(=O)NCC(=O)N[C@@H](CO)C(=O)N[C@@H](CC(N)=O)C(=O)N[C@H](C(=O)N[C@@H](Cc1ccc(O)cc1)C(N)=O)[C@@H](C)O)C(C)C)[C@@H](C)O, also called compound 82)
